The nature of the data set: yeast display, Sf9 membrane polyspecificity reagent, FACS + sequencing; frameworks hold sequencing errors. The method in brief:
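Nanobodies from a synthetic yeast display library (Saccharomyces cerevisiae BJ5465), induced 36–48 hours with galactose, were stained 1 hour at 4 °C with 10% biotinylated, detergent-solubilized Sf9 membrane reagent, enriched on streptavidin microbeads, then FACS-sorted. Anti-HA (expression) and streptavidin (reagent binding) fluorescence set low and high (top ~1%) gates. Polyreactivity labels come from the gate of origin. Genes were colony-PCR amplified, MiSeq 2 × 250 sequenced and filtered by CDR length.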
“QVQLVESGGGVVQAGGSLRLTCAASVSIFASNAMGWYRQAPGKEREFVAAITWRTDRTYYADSVKGRFTISRDNAKNTVYLQMNSLKPEDTAVYYCAADLLPLYDYWGQGTQVTVSS”: the “polyreactivity (PSR sort gate)” value is on record as “high polyreactivity”.
For the sequence “QVQLVESGGGVVQAGGTLRLSCAASGINFIDNTMGWYRQAPGKEREFVATISANSDGTYYADSVKRRFTISRDNAKKTVYLQMNSLKPEETAVYYWGQGTQVTVSS”, the “polyreactivity (PSR sort gate)” value was “low polyreactivity”.
Consider “QVQLVESGGGVVQAGRSLRLSCAASGSTFQPYAMGSYRQAPGKEREFVATISGSAGSTYYADSVKGSFKISRDNAKNTVYLQMTSLKPEDTAVYYCNADSGWFGYDYWGQGTQVTVSS”, for which the “polyreactivity (PSR sort gate)” value is recorded as “low polyreactivity”.
On to “QVQLVESGGGYVQAGGSLRLSCAASGSTFRYYAMGWYRQAPGKEREFVASITQSGGSTYYADSVMGRFTISRDNAKNTVYLQMISLKPEDTAVYYCAADVYSWVYLMDYWGQGTQVTVSS”, for which the “polyreactivity (PSR sort gate)” value was “low polyreactivity”.
Take “QVQLVESGGLLVQAGGSIRLRCDASGIILRGYSLGWYRQAPGKERELVASISRGGSTNYADSVKGRFTISRDNAKTTVYLQMNSLKPEDTAVYSCNARGCNGRSDYDYWGLGTQVTVSS”: the “polyreactivity (PSR sort gate)” value was “high polyreactivity”.
The value for “QVQLVESGGLLVQAGGSLRLSCAASGRIFTHNATGWYRQAPGKERELVAAISYSGVSTYYADSVKGRFTISRDNAKNTVYLQMNSLKPEDTAVYYCARRYWYPDAFYRYDYWGQGTQVTVSS” was “low polyreactivity”.
In the case of “QVQLVESGGLLVQGGGILRLSCAASGRILQGYAMGWSRQAPGKERELVDAISSGGRTYYADSVKGRFTISRDNAKNNYYLQMNSLNPDDTAVYYCAAGECWRIHAYSDDFWVQGTQVTVSS” it was “high polyreactivity”; in that of “QVQLVESGGRLDQAGGSLRLSCAASASTFKEYPMGWYRQAPGKERELVAAISKSGDSTYYADSVKGRFTISRDNAKNTVYLQMNSLKPEDTAVYYCAADTFSFRWSDYWGLGTQVTVSS”, “low polyreactivity”.
In the case of “QVQLVESGGRLFQAGGSLRLSCAASGRTWGYEMGWYRQATGKERELVAAIRNGASTYYADSVKGRFTISRDNAKKTVYFHMNSRKPEDTAVYYCDADYTVRVVATYDYWGQGTQVTVSS” it was “low polyreactivity”; in that of “QVQLVESGGRLGQAGGSLRISCAASGGTFWYYDMGWYRQAPGKERELVAAISSGGNTYYADSVKGRFTISRDNAKITVYLQMNSLKPEDTAVYYCAALPKYGSYYYYPPFDYDYWGQGTQVTVSS”, “low polyreactivity”.
In the case of “QVQLVESGGRLLQAGGSLRLSCAASGRTFRRYAMGWYRPAPGKERELLAAISASGGSTYYADSVKGRFTISRDNAKNTVYLQMNSLKPEDTAVYYCAADWYSYLHGTKYGYWGQGTQVTVSS”, the “polyreactivity (PSR sort gate)” value is on record as “high polyreactivity”.
In the case of “QVQLVESGGRLVQAGGILRLSCAASGRIFAYYAMGWYRHSPGKERELVAAINWSGDGTNYADSVKGRFTISRDNEKNSVYLQMNSLKPEDTAVYYWNADWTSYGFGTRLDYWGQGTQVTVSS” it was “low polyreactivity”; in that of “QVQLVESGGRLVQAGGRLRLSCAASGRIFRYYTLGWYRQAPGKERELVAAITRRGGITNYADSVKGRFTISRDNAKNTVYLQMNSLKPEDTAVYYCAAKYVSQGYDYWGQGTQVTVSS”, “high polyreactivity”.
In the case of “QVQLVESGGRLVQAGGSHRLRCAASGFIFKHNAMGWYRQAPGQEREFVARISWSGGSTRYADSVKGRFTISRDNAKNTVYLQMNSLKPEDTAVYYCAADQLGNDMDYWGQGTQVTVSS” it was “low polyreactivity”; in that of “QVQLVESGGRLVQAGGSLRISCAASGSTFNGNVIVWSRQAPGKERELVAGISKSGGTTYYADSVKGRFTISRDNAKNTVYLQMNSLKPEDTAVYYCAARGRVRYYPQYDYWGQGTQVTVSS”, “high polyreactivity”.
As to “QVQLVESGGRLVQAGGSLRLICAASGGIFGFNAMGWYRQAPGKERELVADISDGVRTNYADSVKWRFTISRDNAKNTVFLQMNSLKPEDTAVNYCATDGVYYVDGSWTLGYWGLGTQVTVSS”, the “polyreactivity (PSR sort gate)” value is on record as “low polyreactivity”.
In the case of “QVQLVESGGRLVQAGGSLRLICAASGITYYEYAMGWYRQAPGKERELVAAITSGGTTNYADSVNGRFTISLDNAKNTVYLQMNSLKPEDTAVYFCAADLIGYSYPDEYYGKGEYDYWGQGTQVTVSS”, the “polyreactivity (PSR sort gate)” value is reported as “low polyreactivity”.
The value for “QVQLVESGGRLVQAGGSLRLICAASGRIFKQYAMGWYRQSPGKERELVARITGSGSRTYYADSVKGRFTISRDNAKITVYIQMKSLKPEDTAVYYCAKDRYYGKRGGAWYDYWGQGTQVTVSS” was “low polyreactivity”; that for “QVQLVESGGRLVQAGGSLRLRCAASGSTIPYNAMGWYRQAPGKERELLAAITSGGSTNYADSVKGRFTISRDNAMNTVYLQMNSLKPEDTAVYYCNADSSGWFPFDYWGQGTQVTVSS” was “low polyreactivity”.
In the case of “QVQLVESGGRLVQAGGSLRLSCAASGFIFDSYAMGWYRQAPGKERELVAAISWSGGRTYYADSVKGRFTISRDNAKNTVYLQMNSLKPEDTAVYYCNVRTKLSTSYDYWGQGTQVTVSS” it was “high polyreactivity”.
The value for “QVQLVESGGRLVQAGGSLRLSCAASGFIFEWNAKGWYRQAPGKERELVASITFGGGNTYYADSVKGRFTISRDYAQNTDYLQMNSLKPEDTAVYYCAVDYGYWRDSIALGEFDYWGQGTQVTVSS” was “low polyreactivity”; that for “QVQLVESGGRLVQAGGSLRLSCAASGFTFPTYAMGWYRQAPGKERELVAAITRGGSTYYADSVKGRFTISRDNAKNTVYLQMNSLKPEDTAVYYCAADDPWYEEDYWGQGTQVTVSS” was “low polyreactivity”; that for “QVQLVESGGRLVQAGGSLRLSCAASGIIFSGYAMGRYRPAPGTVREFVAAIDSVTSTYYADSVKGRFTTSRDNANNTVYLQMISLKPEVTAVYYCNARSDCTWYTLDYWGQGTQVTVSS” was “high polyreactivity”.
With “QVQLVESGGRLVQAGGSLRLSCAASGIIFVSYMGWYIQAPGQERELVAAIRWSGGRTYYADSVKGRFTISRDNAKNTVYLQMTSLKPEDTAVYNCATAPYICAYSLPHHDSWGQGTQVTVSS”, the “polyreactivity (PSR sort gate)” value is “high polyreactivity”.
With “QVQLVESGGRLVQAGGSLRLSCAASGIIFYVYAMGWYRQAPGKERELVAAISSSGGSTYYADSVKGRFTISRDNAKNTVYLQMNSLKPEDSAVYYCAAVSSGYDDWGQGTQVTVTS”, the “polyreactivity (PSR sort gate)” value is on record as “high polyreactivity”.
Take “QVQLVESGGRLVQAGGSLRLSCAASGIIIRKYARGWYRPAPGKVRELVAAITTRGSRTYSADSVKGRFTISRDNAKNTVYLQMNSLKPEDTAVYYCAADRYTVRMDYWGQGTQVTVSS”: the “polyreactivity (PSR sort gate)” value was “high polyreactivity”.
In the case of “QVQLVESGGRLVQAGGSLRLSCAASGITFYYYAMGWYRQAPGKERELVAAISSGGTRTYYADSVKGRFTISRDNAKNTVYLQMNSLKPEDTAVYYCAAPTYWHPTYDYWGQGTQVTVSS”, the “polyreactivity (PSR sort gate)” value is on record as “high polyreactivity”.
For the sequence “QVQLVESGGRLVQAGGSLRLSCAASGRIFANYAMGWYRQAPGKERELVAAISRSGGSTSYADSVKGRFTISRDNAKNTVYLQMNSLKTEDTAVYYCAATRSRYQPVKYGYWGQGTQVTVTS”, the “polyreactivity (PSR sort gate)” value was “high polyreactivity”.
In the case of “QVQLVESGGRLVQAGGSLRLSCAASGRIFAYYAMGWYRQAPGKERELVAAISRSGVSTYYADSVKGRFTISRDNAKNTVYLQMNSLKPEDTAVYYCAARWRSGFTSGDYWGQGTQVTVSS”, the “polyreactivity (PSR sort gate)” value is “low polyreactivity”.
For the sequence “QVQLVESGGRLVQAGGSLRLSCAASGRIFDGNAMGWYRQAPGKERELVAAISWTGGSTYYADSVKGRFTISRDNAKNTVYLQMNSLKPEDTAVYYCAADSGWWLDQWSWYDYWGQGTQVTVSS”, the “polyreactivity (PSR sort gate)” value is “low polyreactivity”.
